Laboratory results from publication PMC8189969, “Interaction standards for biophysics: anti-lysozyme nanobodies” (European Biophysics Journal, 2021).
Where a chain is given by its changes, count along the chain named. In names and notes the source's numbering stands.

B1: Phage-B09 nanobody (VHH)
VHH: EVQLQASGGGFVQPGGSLRLSCAASGSTYRRSTMGWFRQAPGKEREFVSAISSDHSHPDYYADSVKGRFTISRDNSKNTVYLQMNSLRAEDTATYYCAFQYDSDKKSYWGQGTQVTVSS
notes: selected by phage display from the NaLi-H1 synthetic library (Hybrigenics); also called P-B09; source: E. coli T7-Express, purified (IMAC, Superdex-75)
B2: Cab-Lys3 nanobody (VHH)
VHH: DVQLQASGGGSVQAGGSLRLSCAASGYTIGPYCMGWFRQAPGKEREGVAAINMGGGITYYADSVKGRFTISQDNAKNTVYLLMNSLEPEDTAIYYCAADSTIYASYYECGHGLSTGGYGYDSWGQGTQVTVSS
notes: crystal structure PDB 1XFP named for it (Muyldermans and Lauwereys 1999); CDR3 of 24 residues with an extra disulphide between CDR1 and CDR3; also called WT Cab-Lys3; source: E. coli T7-Express, purified (IMAC, Superdex-75)
B3: Cab-Lys3 T101S nanobody (VHH)
VHH: B2 VHH with T101S
notes: as the chain of m6 (Cab-Lys3) with T101S in CDR3; source: E. coli T7-Express, purified (IMAC, Superdex-75)
B4: Cab-Lys3 S105N nanobody (VHH)
VHH: B2 VHH with S105N
notes: as the chain of m6 (Cab-Lys3) with S105N in CDR3; source: E. coli T7-Express, purified (IMAC, Superdex-75)
B5: Phage-F07 nanobody (VHH)
VHH: EVQLQASGGGFVQPGGSLRLSCAASGTSSDLYDMGWFRQAPGKEREFVSAISGDDTQYTYYADSVKGRFTISRDNSKNTVYLQMNSLRAEDTATYYCAPRAHEPHGHWNYYWGQGTQVTVSS
notes: selected by phage display from the NaLi-H1 synthetic library (Hybrigenics); also called P-F07; source: E. coli T7-Express, purified (IMAC, Superdex-75)
B6: H04 nanobody (VHH)
VHH: EVQLLESGGGLVQPGGSLRLSCAASGFRFDAEDMGWVRQAPGKGLEWVSSIYGPSGSTYYADSVKGRFTISRDNSKNTLYLQMNSLRAEDTAVYYCAKYTSPPQNHGFDYWGQGTLVTVSS
notes: crystal structure with lysozyme PDB 4U3X (Rouet et al. 2015); CDR3 of 12 residues; Developed in Daniel Christ's group (Rouet et al. 2015); source: E. coli T7-Express, purified (IMAC, Superdex-75)
B7: H04 H106A nanobody (VHH)
VHH: B6 VHH with H106A
notes: as the chain of m2 (H04) with H106A in CDR3; source: E. coli T7-Express, purified (IMAC, Superdex-75)

Tests used:
hen egg white lysozyme [1] = target: T1, hen egg white lysozyme (Gallus gallus (hen egg white), UniProt P00698); experiment: ITC; Malvern PEAQ-ITC; 20 °C; PBS pH 7.4 with 0.005% tween 20; lysozyme in the cell and nanobody titrated (so in the source); nanobody 20 or 30 µM, lysozyme 200 or 300 µM; single site model; conditions: both partners purified
T1 construct: hen egg white lysozyme (HEWL), 14.5 kDa, monomeric; The source is named for ITC (Roche powder); also called HEWL; source: bought: Roche (HEWL lysozyme powder, > 95%)

hen egg white lysozyme [2] = target: T1, hen egg white lysozyme; experiment: SPR; Biacore T200; lysozyme amine-coupled (EDC/NHS) to a CM5 chip, max 100 units; nanobody as analyte, multi-cycle kinetics; PBS with 0.01% tween20; 20 °C (row labels of Table 1); Langmuir 1:1 model; conditions: both partners purified
hen egg white lysozyme [3] = target: T1, hen egg white lysozyme; experiment: ITC; Malvern PEAQ-ITC; 37 °C; PBS pH 7.4 with 0.005% tween 20; lysozyme in the cell and nanobody titrated (so in the source); single site model; conditions: both partners purified
H04 nanobody = experiment: SEC-MALS; Superdex-75 10/300, 0.75 ml/min, PBS pH 7.4; Wyatt Helios 18-angle photometer, QELS, Optilab TrEX
hen egg white lysozyme [4] = target: T1, hen egg white lysozyme; experiment: SPR; Biacore T200; lysozyme amine-coupled (EDC/NHS) to a CM5 chip, max 100 units; nanobody as analyte, multi-cycle kinetics; PBS with 0.01% tween20; 20 °C (row labels of Table 1); Langmuir 1:1 model; conditions: both partners purified; remark: listed apart in the source

T1 sequence (P00698 19-147): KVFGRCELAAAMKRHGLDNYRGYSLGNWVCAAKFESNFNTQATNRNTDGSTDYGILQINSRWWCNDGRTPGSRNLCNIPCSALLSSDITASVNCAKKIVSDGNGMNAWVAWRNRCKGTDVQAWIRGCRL

Binder	Kd (hen egg white lysozyme [1])	dH (hen egg white lysozyme [1])	Kd (hen egg white lysozyme [2])	koff (hen egg white lysozyme [2])	kon (hen egg white lysozyme [2])	Kd (hen egg white lysozyme [3])	dH (hen egg white lysozyme [3])	stoichiometry N (H04 nanobody)	Kd (hen egg white lysozyme [4])
B1	1430 nM	-14.5 kcal/mol	1300 nM	0.6 s⁻¹	450000 M⁻¹ s⁻¹	–	–	–	–
B2	27 nM	1.6 kcal/mol	5 nM	0.0009 s⁻¹	41000 M⁻¹ s⁻¹	5 nM	-4.02 kcal/mol	–	–
B3	113 nM	3 kcal/mol	135 nM	0.029 s⁻¹	160000 M⁻¹ s⁻¹	105 nM	-5.1 kcal/mol	–	–
B4	125 nM	2.6 kcal/mol	35 nM	0.0028 s⁻¹	79000 M⁻¹ s⁻¹	73 nM	-3.3 kcal/mol	–	–
B5	685 nM	-23.5 kcal/mol	–	–	–	–	–	–	–
B6	24 nM	-17.6 kcal/mol	19 nM	0.0008 s⁻¹	43000 M⁻¹ s⁻¹	–	–	2	–
B7	296 nM	-17 kcal/mol	124 nM	0.056 s⁻¹	450000 M⁻¹ s⁻¹	–	–	–	~250 nM
